How the values were obtained:
SEQ ID NO: 14 peptide = target: T1, SEQ ID NO: 14 peptide
T1 chain: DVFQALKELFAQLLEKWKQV

SEQ ID NO: 4 peptide = target: T2, SEQ ID NO: 4 peptide
T2 chain: PVLDLFRELLNELLQKLKK

SEQ ID NO: 13 peptide = target: T3, SEQ ID NO: 13 peptide
T3 chain: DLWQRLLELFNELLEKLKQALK

SEQ ID NO: 2 peptide = target: T4, SEQ ID NO: 2 peptide
T4 chain: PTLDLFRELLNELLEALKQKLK

SEQ ID NO: 3 peptide = target: T5, SEQ ID NO: 3 peptide
T5 chain: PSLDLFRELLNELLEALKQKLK

SEQ ID NO: 6 peptide = target: T6, SEQ ID NO: 6 peptide
T6 chain: PVLDLFRELLEELLQKLKK

SEQ ID NO: 12 peptide = target: T7, SEQ ID NO: 12 peptide
T7 chain: EVLKNLLEKLLEKLKELF

SEQ ID NO: 5 peptide = target: T8, SEQ ID NO: 5 peptide
T8 chain: PTLDLFRELLNELLQKLKK

B1: recombinant human LCAT (lecithin:cholesterol acyltransferase) (protein)
chain: FWLLNVLFPPHTTPKAELSNHTRPVILVPGCLGNQLEAKLDKPDVVNWMCYRKTEDFFTIWLDLNMFLPLGVDCWIDNTRVVYNRSSGLVSNAPGVQIRVPGFGKTYSVEYLDSSKLAGYLHTLVQNLVNNGYVRDETVRAAPYDWRLEPGQQEEYYRKLAGLVEEMHAAYGKPVFLIGHSLGCLHLLYFLLRQPQAWKDRFIDGFISLGAPWGGSIKPMLVLASGDNQGIPIMSSIKLKEEQRITTTSPWMFPSRMAWPEDHVFISTPSFNYTGRDFQRFFADLHFEEGWYMWLQSRDLLAGLPAPGVEVYCLYGVGLPTPRTYIYDHGFPYTDPVGVLYEDGDDTVATRSTELCGLWQGRQPQPVHLLPLHGIQHLNMVFSNLTLEHINAILLGAYRQGPPASPTASPEPPPPE
RELATIVE ACTIVITY (Percent activity relative to SEQ ID: 1); DHE esterification by rhLCAT with peptide mHDL substrate (SEQ ID NO: 14 peptide): 0%
RELATIVE ACTIVITY (Percent activity relative to SEQ ID: 1); DHE esterification by rhLCAT with peptide mHDL substrate (SEQ ID NO: 4 peptide): 86%
RELATIVE ACTIVITY (Percent activity relative to SEQ ID: 1); DHE esterification by rhLCAT with peptide mHDL substrate (SEQ ID NO: 13 peptide): 0%
RELATIVE ACTIVITY (Percent activity relative to SEQ ID: 1); DHE esterification by rhLCAT with peptide mHDL substrate (SEQ ID NO: 2 peptide): 94%
RELATIVE ACTIVITY (Percent activity relative to SEQ ID: 1); DHE esterification by rhLCAT with peptide mHDL substrate (SEQ ID NO: 3 peptide): 87%
RELATIVE ACTIVITY (Percent activity relative to SEQ ID: 1); DHE esterification by rhLCAT with peptide mHDL substrate (SEQ ID NO: 6 peptide): 65%
RELATIVE ACTIVITY (Percent activity relative to SEQ ID: 1); DHE esterification by rhLCAT with peptide mHDL substrate (SEQ ID NO: 12 peptide): 21%
RELATIVE ACTIVITY (Percent activity relative to SEQ ID: 1); DHE esterification by rhLCAT with peptide mHDL substrate (SEQ ID NO: 5 peptide): 65%
